# Changes are numbered by the printed parent chain.
# T1: CD97 (ADGRE5) isoform 1 ectodomain, purified and biotinylated (human, UniProt P48960 21-552, limits assumed, biotinylated in vitro using the BirA enzyme)
# T1 construct: the whole entry for isoform 1 is named here; also called CD97 isoform 1; Biotinylated CD97 isoform 1
# T1 sequence: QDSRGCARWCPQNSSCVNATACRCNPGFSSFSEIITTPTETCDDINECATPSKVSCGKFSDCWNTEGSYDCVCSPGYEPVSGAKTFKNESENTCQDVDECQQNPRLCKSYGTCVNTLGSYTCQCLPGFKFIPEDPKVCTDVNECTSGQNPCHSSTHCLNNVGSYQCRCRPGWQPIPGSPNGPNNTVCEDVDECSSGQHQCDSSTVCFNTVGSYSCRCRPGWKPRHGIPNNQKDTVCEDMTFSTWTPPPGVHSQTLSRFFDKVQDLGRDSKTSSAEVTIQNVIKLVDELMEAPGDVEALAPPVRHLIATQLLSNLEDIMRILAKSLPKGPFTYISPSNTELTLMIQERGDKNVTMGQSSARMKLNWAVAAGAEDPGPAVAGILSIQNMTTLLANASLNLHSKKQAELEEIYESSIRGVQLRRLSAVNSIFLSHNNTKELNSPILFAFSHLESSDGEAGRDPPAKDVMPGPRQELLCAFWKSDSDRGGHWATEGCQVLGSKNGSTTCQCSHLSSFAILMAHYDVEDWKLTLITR
# T2: CD97 (ADGRE5) isoform 2 ectodomain, purified and biotinylated (human, UniProt P48960 21-552, biotinylated in vitro using the BirA enzyme)
# T2 construct: the whole entry for isoform 2 is named here; also called CD97 isoform 2
# T2 sequence: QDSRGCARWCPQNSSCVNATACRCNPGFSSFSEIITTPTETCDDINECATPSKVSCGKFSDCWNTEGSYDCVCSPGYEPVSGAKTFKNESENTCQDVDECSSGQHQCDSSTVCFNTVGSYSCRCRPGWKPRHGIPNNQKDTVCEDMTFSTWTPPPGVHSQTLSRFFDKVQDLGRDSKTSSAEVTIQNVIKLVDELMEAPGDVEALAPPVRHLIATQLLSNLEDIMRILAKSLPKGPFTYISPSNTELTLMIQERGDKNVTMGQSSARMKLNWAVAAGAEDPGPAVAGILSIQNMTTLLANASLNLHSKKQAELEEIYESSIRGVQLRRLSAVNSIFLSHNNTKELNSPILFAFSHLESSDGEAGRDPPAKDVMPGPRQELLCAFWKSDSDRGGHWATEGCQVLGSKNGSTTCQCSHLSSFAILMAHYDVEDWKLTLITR
# B1: Fab 2Z11 (Fab, V domains shown)
# VH: EVQLVESGGGLVQPGGSLRLSCAASGFTFYYSSIHWVRQAPGKGLEWVASIYSYSGYTSYADSVKGRFTISADTSKNTAYLQMNSLRAEDTAVYYCARYYISGPYYAYRSYTSYAMDYWGQGTLVTVSS
# VL: DIQMTQSPSSLSASVGDRVTITCRASQSVSSAVAWYQQKPGKAPKLLIYSASSLYSGVPSRFSGSRSGTDFTLTISSLQPEDFATYYCQQYWGYSLITFGQGTKVEIKR
# notes: second discovery campaign; biotinylated Fab in the bead assay; also called Antibody Clone 2Z11
# B2: Fab 2Z7 (Fab, V domains shown)
# VH: EVQLVESGGGLVQPGGSLRLSCAASGFTFSSSSIHWVRQAPGKGLEWVASISSSSGSTSYADSVKGRFTISADTSKNTAYLQMNSLRAEDTAVYYCARSYWERYYYWYYFYQYELGLDYWGQGTLVTVSS
# VL: DIQMTQSPSSLSASVGDRVTITCRASQSVSSAVAWYQQKPGKAPKLLIYSASSLYSGVPSRFSGSRSGTDFTLTISSLQPEDFATYYCQQSSSSLITFGQGTKVEIKR
# notes: second discovery campaign; biotinylated Fab in the bead assay; also called Antibody Clone 2Z7
# B3: Fab A1 (Fab, V domains shown)
# VH: EVQLVESGGGLVQPGGSLRLSCAASGFTISSSSIHWVRQAPGKGLEWVASIYSYYGSTYYADSVKGRFTISADTSKNTAYLQMNSLRAEDTAVYYCARPVYGQLGYWTQRWSGMDYWGQGTLVTVSS
# VL: DIQMTQSPSSLSASVGDRVTITCRASQSVSSAVAWYQQKPGKAPKLLIYSASSLYSGVPSRFSGSRSGTDFTLTISSLQPEDFATYYCQQYSWSSYLITFGQGTKVEIKR
# notes: first discovery campaign; also called Antibody Clone A1
# B4: Fab B34 (Fab, V domains shown)
# VH: EVQLVESGGGLVQPGGSLRLSCAASGFTVSYSSIHWVRQAPGKGLEWVASIYSSSGYTSYADSVKGRFTISADTSKNTAYLQMNSLRAEDTAVYYCARSYYRYYLSPIYWGSWGMDYWGQGTLVTVSS
# VL: B3 VL with Y91S, S92G, W93Y, S94Y, S95G, Y96H
# notes: first discovery campaign; also called Antibody Clone B34
# B5: Fab B3 (Fab, V domains shown)
# VH: EVQLVESGGGLVQPGGSLRLSCAASGFTFSSSSIHWVRQAPGKGLEWVASISPYSGYTSYADSVKGRFTISADTSKNTAYLQMNSLRAEDTAVYYCARAYYYWSHWYMHYVSYPGGMDYWGQGTLVTVSS
# VL: B3 VL with Y91L, S92R, W93H, S94Y, Y96H
# notes: first discovery campaign; also called Antibody Clone B3
# B6: Fab B23 (Fab, V domains shown)
# VH: EVQLVESGGGLVQPGGSLRLSCAASGFTVSSSSIHWVRQAPGKGLEWVASIYPYSGSTSYADSVKGRFTISADTSKNTAYLQMNSLRAEDTAVYYCARSLGWHRHYNYYFYFYANAIDYWGQGTLVTVSS
# VL: B1 VL with Y94S, S95D, L96P
# notes: first discovery campaign; also called Antibody Clone B23
# B7: Fab C14 (Fab, V domains shown)
# VH: EVQLVESGGGLVQPGGSLRLSCAASGFTVSSSSIHWVRQAPGKGLEWVASIYSYSGSTSYADSVKGRFTISADTSKNTAYLQMNSLRAEDTAVYYCARSFGWGQSFYYSHYFYITAFDYWGQGTLVTVSS
# VL: B1 VL with G93H, Y94E
# notes: first discovery campaign; also called Antibody Clone C14
# B8: Fab B20 (Fab, V domains shown)
# VH: EVQLVESGGGLVQPGGSLRLSCAASGFTISSSSIHWVRQAPGKGLEWVASISSSSGSTSYADSVKGRFTISADTSKNTAYLQMNSLRAEDTAVYYCARIRHYHWYEIPYWDWAIDYWGQGTLVTVSS
# VL: B2 VL
# notes: first discovery campaign; also called Antibody Clone B20
# B9: Fab B25 (Fab, V domains shown)
# VH: EVQLVESGGGLVQPGGSLRLSCAASGFTISSSSIHWVRQAPGKGLEWVASISSYSGSTSYADSVKGRFTISADTSKNTAYLQMNSLRAEDTAVYYCARSFFKYYLWYGYHNYWSAIDYWGQGTLVTVSS
# VL: B2 VL
# notes: first discovery campaign; also called Antibody Clone B25
# B10: Antibody clone C27, human IgG1 LALA-PG format (antibody, V domains shown)
# VH: EVQLVESGGGLVQPGGSLRLSCAASGFTLSSSSIHWVRQAPGKGLEWVASIYSYYGSTYYADSVKGRFTISADTSKNTAYLQMNSLRAEDTAVYYCARYRGNMYYWESWYGSYWALDYWGQGTLVTVSS
# VL: B2 VL
# B11: Antibody clone 2V10, human IgG1 LALA-PG format (antibody, V domains shown)
# VH: EVQLVESGGGLVQPGGSLRLSCAASGFTISSSSIHWVRQAPGKGLEWVAYIYPSSGSTSYADSVKGRFTISADTSKNTAYLQMNSLRAEDTAVYYCARPWYYSTFNKKWWDYQGLDYWGQGTLVTVSS
# VL: B2 VL with S92W, S93W, S94D, L95P
# B12: hIgG1_LALA D25 (antibody, V domains shown)
# VH: EVQLVESGGGLVQPGGSLRLSCAASGFTFSSSSIHWVRQAPGKGLEWVASISPYYGSTSYADSVKGRFTISADTSKNTAYLQMNSLRAEDTAVYYCARKLEWGMFFWSPYFRALDYWGQGTLVTVSS
# VL: DIQMTQSPSSLSASVGDRVTITCRASQSVSSAVAWYQQKPGKAPKLLIYSASSLYSGVPSRFSGSRSGTDFTLTISSLQPEDFATYYCQQSSSSLITFGQGTKVEIK
# B13: hIgG1_LALA 2Z3 (antibody, V domains shown)
# VH: EVQLVESGGGLVQPGGSLRLSCAASGFTFSSSSIHWVRQAPGKGLEWVASISSSSGSTSYADSVKGRFTISADTSKNTAYLQMNSLRAEDTAVYYCARVLLGKFWYYNYYEYSAMDYWGQGTLVTVSS
# VL: B12 VL
# B14: hIgG1_LALA 2W1 (antibody, V domains shown)
# VH: EVQLVESGGGLVQPGGSLRLSCAASGFTVSSSSIHWVRQAPGKGLEWVAYISSSSGSTYYADSVKGRFTISADTSKNTAYLQMNSLRAEDTAVYYCARDFYFGSYYSFGWGLDYWGQGTLVTVSS
# VL: B12 VL with S91D, S94Y, L95P
# Target: T1, CD97 (ADGRE5) isoform 1 ectodomain, …
# Assay: bead-based binding titration (biotinylated antigen on streptavidin beads, flow cytometry), 1:1 fit
row,Binder,Kd
1,B1,3.4 nM
2,B2,38 nM

# Target: T2, CD97 (ADGRE5) isoform 2 ectodomain, …
# Assay: as above
row,Binder,Kd
1,B1,3 nM
2,B2,30 nM

# Target: T1, CD97 (ADGRE5) isoform 1 ectodomain, …
# Assay: as above
# Remark: another data set of the same source
row,Binder,Kd
1,B3,1.7 nM
2,B4,2.5 nM
3,B5,5.8 nM
4,B6,0.9 nM
5,B7,4.7 nM
6,B8,2.3 nM
7,B9,5.8 nM

# Target: T2, CD97 (ADGRE5) isoform 2 ectodomain, …
# Assay: as above
# Remark: another data set of the same source
row,Binder,Kd
1,B3,1.7 nM
2,B4,2.7 nM
3,B5,4.3 nM
4,B6,0.9 nM
5,B7,5 nM
6,B8,2.9 nM
7,B9,5.5 nM

# Target: Endogenous CD97 on the cell surface (human) (UniProt P48960)
# Assay: cell-based binding titration on OCI-AML3 cells, flow cytometry, 1:1 fit
row,Binder,Kd
1,B10,9.6 nM
2,B11,0.3 nM
3,B12,1 nM
4,B13,140 nM
5,B14,25 nM
